Results taken from article PMC8498194.

Target: hnRNP A1B (heterogenous ribonucleoprotein A1B), mouse (mouse (endogenous in C57BL6/N tissues))
Experiment: SDS-PAGE immunoblot of tissue lysates (SDS-resistant band); 15 ug of mouse tissue lysate (2 month-old mice, CNS and peripheral tissues) on 12.5% SDS-PAGE, blotted with anti-hnRNP A1B (custom) or anti-hnRNP A1 (4B10)

- stoichiometry N: 2
Substance: hnRNP A1B (heterogenous ribonucleoprotein A1B), mouse (natural protein)
